From PMC5641545, “Structure and Interactions of the TPR Domain of Sgt2 with Yeast Chaperones and Ybr137wp” (Frontiers in Molecular Biosciences, 2017)

Tests used:
TPR domains = details: ref Scheufler et al., 2000; cited from earlier work
Text: The orientation of Hsp peptides in TPR structures varies between proteins. The conserved clamp mode of interactions is consistent, but there are some differences observed for the N-terminal parts of the peptides, which is not surprising given that the carboxylate clamp is the fixed point of attachment. The PTVEEVD peptide adopts an extended conformation within the Sgt2_TPR groove similar to that observed in the structure of the HOP TPR1/GPTIEEVD complex (Scheufler et al., [2000]). In contrast, structures of GPTIEEVD/Chip TPR [PDB: 3Q49 (Wang L. et al., [2011]) and PDB: 4KBQ Zhang et al., [2005 ...

[1] = target: Ybr137wp (Saccharomyces cerevisiae) (UniProt P38276); experiment: ITC; details: cited from earlier work
[2] = target: T1, Sgt2_TPR (residues 93–229) (Saccharomyces cerevisiae, UniProt Q12118); experiment: ITC binding of peptides to Sgt2_TPR (93–229); parameters: species or system S. cerevisiae; details: 25°C, pH 6.0, from ΔG = −RT·lnKb and ΔG = ΔH − TΔS
T1 construct: were added to Sgt2_TPR (residues 93–229) at 50 μM in the reaction cell; thioredoxin A (N, cleaved yes); hexahistidine tag (N, cleaved yes); made in house; host or cells: E. coli BL21 (DE3)
T1 sequence (Q12118 93-229): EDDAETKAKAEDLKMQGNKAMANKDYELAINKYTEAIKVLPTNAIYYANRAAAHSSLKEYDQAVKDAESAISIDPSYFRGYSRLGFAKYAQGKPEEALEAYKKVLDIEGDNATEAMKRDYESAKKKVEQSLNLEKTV

Sgt2_TPR (93–229) = target: T2, Sgt2_TPR (93–229) (S. cerevisiae, UniProt Q12118 93-229); experiment: ITC; 20 injections of 2 uL of 500 uM peptide into 50 uM Sgt2_TPR (93-229) in the cell; 10 mM potassium phosphate pH 6.0, 100 mM NaCl, 250 uM TCEP, 25°C; details: both partners purified
T2 construct: Small glutamine-rich tetratricopeptide repeat-containing protein 2 (Sgt2), S. cerevisiae, TPR domain, residues 93-229; 15N-labelled for the NMR titrations; Cloned from synthetic cDNA into the BamHI/XhoI sites of a modified pET28; also called TPR domain of Sgt2; longer construct of Sgt2_TPR; not shown: thioredoxin A, N-terminal, cleaved; His6, N-terminal, cleaved
T2 sequence (looked up): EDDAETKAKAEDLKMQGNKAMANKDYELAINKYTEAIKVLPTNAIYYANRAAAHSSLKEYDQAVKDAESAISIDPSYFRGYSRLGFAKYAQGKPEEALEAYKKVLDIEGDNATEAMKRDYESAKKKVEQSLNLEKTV

Sequence of Ybr137wp (Saccharomyces cerevisiae) (P38276 whole entry, the tested form may be a part): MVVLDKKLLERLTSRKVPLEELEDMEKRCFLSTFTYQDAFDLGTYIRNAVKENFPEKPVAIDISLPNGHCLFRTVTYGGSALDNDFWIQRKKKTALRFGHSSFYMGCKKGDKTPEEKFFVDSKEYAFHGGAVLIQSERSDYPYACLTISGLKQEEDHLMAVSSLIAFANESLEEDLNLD

## EEVD
TPR domains
  Fold reduction of affinity on trimming the peptide sequence to EEVD only: at least 10 times

## Sgt2 TPR (from UniProt Q12118)
[1]
  Kd: 1380 nM

## MEEVD [peptide corresponding to C-terminal of Hsp82; residues 705–709]
[2]
  ΔS (reaction entropy) by ITC: 10.9 cal/mol·deg

B1: SLEEDLNLD peptide (C-terminus of Ybr137wp) (peptide)
peptide: SLEEDLNLD
notes: Ybr137wp, yeast, C-terminal residues 171-179; also called Ybr137wp-derived peptide; source: synthetic peptide, bought: Alpha BioScience (Birmingham, UK)
Sgt2_TPR (93–229)
  Kd: 1530 ± 50 nM
  dH: -7.07 ± 0.99 kcal/mol

B2: MEEVD peptide (C-terminus of Hsp82) (peptide)
peptide: MEEVD
notes: Hsp82 (yeast Hsp90), C-terminal residues 705-709; the abstract and discussion call the parent Hsc82; also called C-terminal fragment of Hsp82; Hsc82 C-terminal peptide; source: synthetic peptide, bought: Alpha BioScience (Birmingham, UK)
Sgt2_TPR (93–229)
  Kd: 2950 ± 310 nM
  dH: -4.51 ± 0.03 kcal/mol

B3: PTVEEVD peptide (C-terminus of Ssa1) (peptide)
peptide: PTVEEVD
notes: Heat shock protein Ssa1 (yeast Hsp70), last seven amino acids; printed as residues 634-640; also called C-terminal peptide of Ssa1; Ssa1 derived PTVEEVD peptide; source: synthetic peptide, bought: Alpha BioScience (Birmingham, UK)
Sgt2_TPR (93–229)
  Kd: 9040 ± 50 nM
  dH: -6.72 ± 0.07 kcal/mol
